Assays:
[1] = biological target: HLA-A*02:01; experiment: IEDB peptide-MHC binding, purified MHC/competitive/fluorescence; filed as Kd, often an IC50 or EC50 that approximates it; ≥ and ≤ were set here for values at or beyond the usual limits of such assays
[2] = biological target: HLA-A*02:03; experiment: as above
[3] = biological target: HLA-A*02:12; experiment: as above
[4] = biological target: HLA-A*02:16; experiment: as above
[5] = biological target: HLA-A*02:19; experiment: as above
[6] = biological target: HLA-A*03:01; experiment: as above
[7] = biological target: HLA-A*23:01; experiment: as above
[8] = biological target: HLA-A*24:03; experiment: as above
[9] = biological target: HLA-A*26:01; experiment: as above
[10] = biological target: HLA-A*68:02; experiment: as above
[11] = biological target: HLA-B*15:01; experiment: as above
[12] = biological target: HLA-B*18:01; experiment: as above
[13] = biological target: HLA-B*27:03; experiment: as above
[14] = biological target: HLA-B*39:01; experiment: as above
[15] = biological target: HLA-B*46:01; experiment: as above
[16] = biological target: HLA-B*51:01; experiment: as above
[17] = biological target: HLA-B*57:01; experiment: as above
[18] = biological target: HLA-A*02:01; experiment: IEDB peptide-MHC binding, purified MHC/competitive/fluorescence; ≥ and ≤ were set here for values at or beyond the usual limits of such assays
[19] = biological target: HLA-A*24:02; experiment: as above
[20] = biological target: HLA-B*07:02; experiment: as above
[21] = biological target: HLA-B*15:01; experiment: as above
[22] = biological target: HLA-B*15:03; experiment: IEDB peptide-MHC binding, purified MHC/competitive/radioactivity; filed as Kd, often an IC50 or EC50 that approximates it; ≥ and ≤ were set here for values at or beyond the usual limits of such assays; conditions: source organism: Vaccinia virus WR
[23] = biological target: HLA-A*31:01; experiment: IEDB peptide-MHC binding, purified MHC/competitive/fluorescence; filed as Kd, often an IC50 or EC50 that approximates it; ≥ and ≤ were set here for values at or beyond the usual limits of such assays
[24] = biological target: HLA-A*01:01; experiment: as above; conditions: source organism: Shigella boydii CDC 3083-94
[25] = biological target: HLA-B*58:01; experiment: as above
[26] = biological target: HLA-A*02:11; experiment: as above
[27] = biological target: HLA-A*29:02; experiment: as above
[28] = biological target: HLA-A*69:01; experiment: as above
[29] = biological target: HLA-A*03:01; experiment: IEDB peptide-MHC binding, purified MHC/direct/fluorescence; filed as Kd, often an IC50 or EC50 that approximates it; ≥ and ≤ were set here for values at or beyond the usual limits of such assays
[30] = biological target: HLA-A*11:01; experiment: as above
[31] = biological target: HLA-B*15:42; experiment: IEDB peptide-MHC binding, purified MHC/competitive/fluorescence; filed as Kd, often an IC50 or EC50 that approximates it; ≥ and ≤ were set here for values at or beyond the usual limits of such assays; conditions: source organism: Rickettsia typhi str. Wilmington
[32] = biological target: HLA-B*45:06; experiment: as above; conditions: source organism: Rickettsia typhi str. Wilmington
[33] = biological target: HLA-B*83:01; experiment: as above; conditions: source organism: Rickettsia typhi str. Wilmington
[34] = biological target: HLA-B*15:17; experiment: as above
[35] = source organism: Burkholderia pseudomallei K96243
[36] = source organism: Vaccinia virus
[37] = source organism: Sudan ebolavirus
[38] = source organism: Escherichia coli 101-1
[39] = source organism: Shigella boydii CDC 3083-94
[40] = source organism: Campylobacter jejuni subsp. jejuni NCTC 11168 = ATCC 700819
[41] = source organism: Zaire ebolavirus
[42] = source organism: Rickettsia typhi
[43] = source organism: Rickettsia typhi str. Wilmington
[44] = source organism: Burkholderia mallei
[45] = source organism: Bacillus anthracis str. 'Ames Ancestor'
[46] = source organism: dengue virus type 4

## DELWRGLLA
[1]; [35]
  Kd: ≥ 20 µM
[2]; [35]
  Kd: ≥ 20 µM
[3]; [35]
  Kd: ≥ 20 µM
[4]; [35]
  Kd: ≥ 20 µM
[5]; [35]
  Kd: ≥ 20 µM
[6]; [35]
  Kd: ≥ 20 µM
[7]; [35]
  Kd: ≥ 20 µM
[8]; [35]
  Kd: ≥ 20 µM
[9]; [35]
  Kd: ≥ 20 µM
[10]; [35]
  Kd: ≥ 20 µM
[11]; [35]
  Kd: ≥ 20 µM
[12]; [35]
  Kd: 0.0813 µM
[13]; [35]
  Kd: ≥ 20 µM
[14]; [35]
  Kd: ≥ 20 µM
[15]; [35]
  Kd: ≥ 20 µM
[16]; [35]
  Kd: ≥ 20 µM
[17]; [35]
  Kd: ≥ 20 µM

## FANPLSNPF
[18]; [36]
  IC50: 2.53 µM
[19]; [36]
  IC50: 2.78 µM
[20]; [36]
  IC50: 69.1 µM
[21]; [36]
  IC50: 5.74 µM
[22]
  Kd: 0.00192 µM

## FQKAFSMPL
[18]; [37]
  IC50: 0.784 µM
[19]; [37]
  IC50: 27.5 µM
[20]; [37]
  IC50: 16 µM
[21]; [37]
  IC50: 2.11 µM

## GTKAWVMNR
[6]; [38]
  Kd: 4.5 µM
[23]; [38]
  Kd: 0.0033 µM

## HSETVIHRY
[24]
  Kd: 0.0144 µM
[11]; [39]
  Kd: 3 µM
[25]; [39]
  Kd: ≥ 20 µM

## KGIHPQNHL
[25]; source organism: Escherichia coli
  Kd: ≥ 20 µM

## KGMKIQHFK
[1]; [40]
  Kd: ≥ 20 µM
[2]; [40]
  Kd: ≥ 20 µM
[26]; [40]
  Kd: ≥ 20 µM
[3]; [40]
  Kd: ≥ 20 µM
[4]; [40]
  Kd: ≥ 20 µM
[5]; [40]
  Kd: ≥ 20 µM
[6]; [40]
  Kd: 0.0679 µM
[7]; [40]
  Kd: ≥ 20 µM
[8]; [40]
  Kd: ≥ 20 µM
[9]; [40]
  Kd: ≥ 20 µM
[27]; [40]
  Kd: ≥ 20 µM
[10]; [40]
  Kd: ≥ 20 µM
[28]; [40]
  Kd: ≥ 20 µM
[11]; [40]
  Kd: ≥ 20 µM
[12]; [40]
  Kd: ≥ 20 µM
[13]; [40]
  Kd: ≥ 20 µM
[14]; [40]
  Kd: ≥ 20 µM
[15]; [40]
  Kd: ≥ 20 µM
[16]; [40]
  Kd: ≥ 20 µM
[17]; [40]
  Kd: ≥ 20 µM

## LKASGRYQW
[25]; source organism: Escherichia coli O139:H28 str. E24377A
  Kd: 0.879 µM

## LLQRWGGTC
[18]; [41]
  IC50: 2.49 µM
[20]; [41]
  IC50: ≥ 473 µM
[21]; [41]
  IC50: 41.3 µM

## LTIPTIMGR
[29]; [42]
  Kd: 0.93 µM
[30]; [42]
  Kd: 0.003 µM
[23]; [43]
  Kd: 0.00255 µM
[31]
  Kd: ≥ 5 µM
[32]
  Kd: ≥ 5 µM
[33]
  Kd: ≥ 5 µM

## LTQRRTTPR
[29]; [44]
  Kd: 1.86 µM
[30]; [44]
  Kd: 0.0526 µM
[23]; source organism: Burkholderia mallei FMH
  Kd: 0.0131 µM

## MTQNISNDK
[1]; [45]
  Kd: ≥ 20 µM
[2]; [45]
  Kd: ≥ 20 µM
[26]; [45]
  Kd: ≥ 20 µM
[3]; [45]
  Kd: ≥ 20 µM
[4]; [45]
  Kd: ≥ 20 µM
[5]; [45]
  Kd: ≥ 20 µM
[6]; [45]
  Kd: 6 µM
[8]; [45]
  Kd: ≥ 20 µM
[9]; [45]
  Kd: ≥ 20 µM
[27]; [45]
  Kd: ≥ 20 µM
[10]; [45]
  Kd: ≥ 20 µM
[28]; [45]
  Kd: ≥ 20 µM
[11]; [45]
  Kd: ≥ 20 µM
[34]; [45]
  Kd: ≥ 20 µM
[12]; [45]
  Kd: ≥ 20 µM
[13]; [45]
  Kd: ≥ 20 µM
[14]; [45]
  Kd: ≥ 20 µM
[15]; [45]
  Kd: ≥ 20 µM
[16]; [45]
  Kd: ≥ 20 µM
[17]; [45]
  Kd: ≥ 20 µM

## QLEVRSTEV
[1]; [43]
  Kd: ≥ 20 µM
[26]; [43]
  Kd: ≥ 20 µM
[3]; [43]
  Kd: 0.43 µM
[4]; [43]
  Kd: ≥ 20 µM
[6]; [43]
  Kd: ≥ 20 µM
[7]; [43]
  Kd: ≥ 20 µM
[8]; [43]
  Kd: ≥ 20 µM
[9]; [43]
  Kd: ≥ 20 µM
[27]; [43]
  Kd: ≥ 20 µM
[11]; [43]
  Kd: ≥ 20 µM
[34]; [43]
  Kd: ≥ 20 µM
[12]; [43]
  Kd: ≥ 20 µM
[13]; [43]
  Kd: ≥ 20 µM
[14]; [43]
  Kd: ≥ 20 µM
[15]; [43]
  Kd: ≥ 20 µM
[16]; [43]
  Kd: ≥ 20 µM
[17]; [43]
  Kd: ≥ 20 µM

## RNNDPTLPY
[1]; [39]
  Kd: ≥ 20 µM
[2]; [39]
  Kd: ≥ 20 µM
[3]; [39]
  Kd: ≥ 20 µM
[4]; [39]
  Kd: ≥ 20 µM
[5]; [39]
  Kd: ≥ 20 µM
[7]; [39]
  Kd: ≥ 20 µM
[8]; [39]
  Kd: ≥ 20 µM
[9]; [39]
  Kd: ≥ 20 µM
[10]; [39]
  Kd: ≥ 20 µM
[28]; [39]
  Kd: ≥ 20 µM
[34]; [39]
  Kd: ≥ 20 µM
[12]; [39]
  Kd: ≥ 20 µM
[13]; [39]
  Kd: ≥ 20 µM
[14]; [39]
  Kd: ≥ 20 µM
[15]; [39]
  Kd: ≥ 20 µM
[16]; [39]
  Kd: ≥ 20 µM
[17]; [39]
  Kd: ≥ 20 µM

## RSSKLVMRY
[25]; source organism: Yersinia pestis Nepal516
  Kd: 0.0183 µM

## VVTLIPLCR
[30]; [46]
  Kd: 0.454 µM
[23]; [46]
  Kd: 0.0301 µM

Source: the Immune Epitope Database (IEDB)
